Consider two molecules from patent US20220267420A1 (Memorial Sloan Kettering, published 2022).

In experiment [1] the target is T1, CD3 on the Jurkat T cell line (human, UniProt P07766 23-207).
T1 construct: whole, on cells; The result sentence says only 'CD3'; the epsilon chain comes from the description of the construct; also called human CD3 epsilon
The experiment can be described thus: flow cytometry on Jurkat cells (HLA-A2 negative).
Procedure: Binding of the indicated bispecific mAb constructs to Foxp3+/HLA-A2+T lymphoma cell line MAC-2A and control cell line Jurkat. Since the bispecific mAb constructs were myc-tagged, the binding was tested by staining the cells with the bispecific mAbs, followed by a secondary mAb, mouse anti-myc conjugated to FITC. […] Binding strength is shown by median fluorescent intensity.

Experiment [2] concerns the target T2, G10: … on HLA-A2 of T2 cells (human, UniProt A*02:01).
T2 construct: on T2 cells; A10G; also called G10 analog of the Foxp3-TLI peptide/HLA-A*02:01
The experiment can be described thus: flow cytometry; T2 cells pulsed with the peptide at 50 ug/ml, stained with Foxp3-#32 bispecific mAb. For orientation: Flow cytometry measures light scatter and fluorescence of single cells or particles in a stream.
Source text: (§1) TLI peptide was substituted with alanine at position 1, 2, 3, 4, 5, 7, 8 and 9, or with glycine at position 10. Position 6 was already alanine and it was left intact.

For experiment [3], the target named is T3, A7: … on HLA-A2 of T2 cells (human, UniProt A*02:01).
T3 construct: on T2 cells; I7A; also called A7 analog of the Foxp3-TLI peptide/HLA-A*02:01
Described as above.
Source text: as §1

Experiment [4] has as its target T4, A4: … on HLA-A2 of T2 cells (human, UniProt A*02:01).
T4 construct: on T2 cells; R4A; also called A4 analog of the Foxp3-TLI peptide/HLA-A*02:01
The experiment is described as above.
Source text: as §1

In experiment [5] the target is T5, A8: … on HLA-A2 of T2 cells (human, UniProt A*02:01).
T5 construct: on T2 cells; L8A; also called A8 analog of the Foxp3-TLI peptide/HLA-A*02:01
The description is as above.
Source text: as §1

Experiment [6] has as its target T6, A1: … on HLA-A2 of T2 cells (human, UniProt A*02:01).
T6 construct: on T2 cells; T1A; also called A1 analog of the Foxp3-TLI peptide/HLA-A*02:01
The description is as above.
Source text: as §1

For experiment [7], the target named is T7, A5: … on HLA-A2 of T2 cells (human, UniProt A*02:01).
T7 construct: on T2 cells; W5A; also called A5 analog of the Foxp3-TLI peptide/HLA-A*02:01
The description is as above.
Source text: as §1

The target in experiment [8] is T8, A2: … on HLA-A2 of T2 cells (human, UniProt A*02:01).
T8 construct: on T2 cells; L2A; also called A2 analog of the Foxp3-TLI peptide/HLA-A*02:01
The experiment is described as above.
Source text: as §1

Experiment [9] deals with T9, A9: … on HLA-A2 of T2 cells (human, UniProt A*02:01).
T9 construct: on T2 cells; E9A; also called A9 analog of the Foxp3-TLI peptide/HLA-A*02:01
Described as above.
Source text: as §1

Experiment [10] addresses T10, A3: … on HLA-A2 of T2 cells (human, UniProt A*02:01).
T10 construct: on T2 cells; I3A; also called A3 analog of the Foxp3-TLI peptide/HLA-A*02:01
The experiment is described as above.
Source text: as §1

Experiment [11] has as its target T11, HLA-A*02:01 on T2 cells without added peptide (human).
T11 construct: Also serves as the HLA partner in the T2 stabilization assay of the TLI analog peptides; also called T2 cells alone; HLA-A*02 molecule
The experiment in a line: flow cytometry; T2 cells without peptide, stained with Foxp3-#32 bispecific mAb.
Source text: as §1

T1 sequence (P07766 23-207): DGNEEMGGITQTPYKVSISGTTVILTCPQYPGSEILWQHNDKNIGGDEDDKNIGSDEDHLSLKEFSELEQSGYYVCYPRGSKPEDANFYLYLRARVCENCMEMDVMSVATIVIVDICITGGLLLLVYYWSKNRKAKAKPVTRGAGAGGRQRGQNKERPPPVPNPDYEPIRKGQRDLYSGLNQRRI

B1: Foxp3-#32 mAb, mouse IgG1 form (antibody, V domains shown)
VH: EVQLVESGGGVVQPGRSLRLSCAASGFTFNNHAMHWVRQAPGKGLEWVAVISFDGDDKFYADSVKGRFTISRDNSRNTLFLQMNNLRPEDTAVYYCSRDPYHFASGSYSYFDYWGQGTLVTVSS
VL: QSVLTQPPSVSVAPGKTARITCGGNNIGSKSVHWYQQKPGQAPVLVIYYDSDRPSGIPERFSGSNSGNTATLTISRVEAGDEADYYCQVWDSSSDHYVFGTGTKVTVL
modifications: APC-conjugated in some stainings; the letters do not carry the dye.
notes: Mouse IgG1 form of the TCR-mimic antibody, used for flow cytometry and APC-conjugated in some stainings; Where the text says only 'Foxp3-#32 mAb' in the Treg and cell line stainings, the methods and legends name the mouse IgG1 form; also called mAb Foxp3-#32; mAb-Foxp3-#32
For the molecule B1, the binding result in experiment [1] is on record as “no binding (tested: 1 ug/ml)”.

B2: Foxp3-#32 bispecific mAb (bispecific antibody)
chain: QSVLTQPPSVSVAPGKTARITCGGNNIGSKSVHWYQQKPGQAPVLVIYYDSDRPSGIPERFSGSNSGNTATLTISRVEAGDEADYYCQVWDSSSDHYVFGTGTKVTVLGSRGGGGSGGGGSGGGGSLEMAEVQLVESGGGVVQPGRSLRLSCAASGFTFNNHAMHWVRQAPGKGLEWVAVISFDGDDKFYADSVKGRFTISRDNSRNTLFLQMNNLRPEDTAVYYCSRDPYHFASGSYSYFDYWGQGTLVTVSSTSGGGGSDVQLVQSGAEVKKPGASVKVSCKASGYTFTRYTMHWVRQAPGQGLEWIGYINPSRGYTNYADSVKGRFTITTDKSTSTAYMELSSLRSEDTATYYCARYYDDHYCLDYWGQGTTVTVSSGEGTSTGSGGSGGSGGADDIVLTQSPATLSLSPGERATLSCRASQSVSYMNWYQQKPGKAPKRWIYDTSKVASGVPARFSGSGSGTDYSLTINSLEAEDAATYYCQQWSSNPLTFGGGTKVEIKHHHHHH
notes: Bispecific T cell engager format, made in CHO cells and purified through its His tag; also called FoxP3-#32 BsAb; Foxp3-bispecific mAb
For B2, the “Median:PE-A” value in experiment [2] worked out at 214; in experiment [3], 3470; in experiment [4], 4450; in experiment [5], 122; in [6] it was 5620; in experiment [7], 861. For the same molecule, the “Median:PE-A” value in [8] is 603; in experiment [9], 117; in experiment [10] it was 5510. Moreover, the binding result in [11] is reported as “no binding”.
